In patent US20200171068A1, “COMPOSITIONS COMPRISING APTAMERS AND NUCLEIC ACID PAYLOADS AND METHODS OF USING THE SAME” (Children's National Medical Center, priority 2017, published 2020):
Entries after “also recorded” stand apart in the source; their conditions may differ.

B1: miR-26a chimera: mouse c-Kit DNA aptamer-C3-passenger RNA, passenger RNA-TEG-cholesterol and miR-26a-5p guide strand annealed (SEQ ID NO:6/7, 8, 9) (nucleic acid)
chain 1: GCTCAACGCGGGACGGCTCTCCCATTGAC
chain 2: CCUAUUCUGG
chain 3: GUUACUUGCACG
guide: UUCAAGUAAUCCAGGAUAGGCU
modifications: chemistry not fully specified

Tests used:
TUBO-derived tumors [1] = assay: Syngeneic TUBO breast tumor model in BALB/c mice; assay type: in vivo, mouse; settings: for tumor size / growth, monotherapy: chimera 670 pmol/20 g 5 daily injections, 5-FU 50 mg/kg 3 times
Method: BALB/c mice bearing TUBO tumors were treated intravenously with miR-26a chimera (670 pmol/20 g) daily for 5 days. At days 2, 3, and 4, 50 mg/kg 5-FU was intravenously injected. Peripheral blood was collected 5 and 10 days after the initial 5-FU treatment. FIG. 9A is a series of graphs showing the numbers of WBC, RBC, and PLT 5 days after 5-FU treatment. FIG. 9B is a series of graphs showing the numbers of WBC, RBC, and PLT 10 days after 5-FU treatment. Data (mean+s.d.) were pooled from two experiments, involving a total of 6 mice per group. *, P<0.05, **, P<0.01. Xenograft model were generated 8-weeks old female immune-deficient NOD-scid IL2Rgamma^null (NSG™, Jackson Laboratories, Bar Harbar, Me., USA) using human breast cancer cell line. Syngeneic TUBO tumors were established in 8-weeks old female BALB/c mice (from Charles River Animal Facility, Frederick, Md., USA). These tumor-bearing mice were randomly assigned to each treatment group. Eight-week old male C57BL/6 mice and C57BL/6 ly5.2 mice (from Charles River Animal Facility, Frederick, Md., USA) were used for bone marrow transplantation assay. The mouse groups assigned for each treatment were not blinded. No statistical methods were used to pre-determined sample size for the analysis of mouse experiments. All the mice were maintained in the Research Animal Facility at Children's National Institute, Children's National Medical Center. The committee on the Use and Care of Animal at Children's National Institute approved all procedures involving experimental animals. For xenograft models, the NSG mice and BALB/c mice were subcutaneously injected with 2×10^6 viable MDA-MB-231 cells and TUBO cells in their right hind limbs, respectively. After the tumor grew to 1 cm in diameter, mice were randomly divided into the groups for each treatment. For no treatment control, 100 μl saline with 1% mouse serum was intravenously injected through tail vein. […] Tumor sizes were measured in two dimensions every 3 days. Tumor volume (V) was calculated using the following formula: V=(½) S^2×L (S. the shortest dimension; L, the longest dimension). […] For chimera treatment in normal mice, C57BL/6 mice were treated with miR-26a chimera (670 pmol/20 g) everyday for 3 days by intravenous injection. […] Peripheral bloods were collected at day 5 and day 10 after the 5-FU treatment. Complete blood counts were measured by Hemavet 950FS (Drew Scientific, Miami Lakes, Fla., USA).

TUBO cells = assay: Growth and apoptosis of TUBO cells in vitro; assay type: cell-based, mouse; settings: for percentage of apoptotic TUBO cells (Annexin V+): single agent
Method: FIG. 4A-FIG. 4J show how miR-26a chimera inhibits mouse breast cancer growth and protects from chemo-induced myelosuppression. FIG. 4A is a graph showing the binding of c-Kit-aptamer to TUBO cells. […] Cell count (left) and Annexin V^+ cells (%) (right) of the cells cultured with miR-26a chimera or the control (ctrl) were determined by flow cytometry. Asterisks denote the significant difference between ctrl chimera versus miR-26a chimera, and between ctrl chimera+5-FU versus miR-26a chimera+5FU. Data (mean±s.d.) were pooled from two experiments. FIG. 4C is a graph showing miR-26a expression in c-Kit^+ or c-Kit cells harvested from TUBO-derived tumors in BALB/c mice treated with miR-26a chimera (670 pmol/20 g) for 3 days. Data (mean+s.d.) were pooled from two experiments, involving a total of 6 mice per group. FIG. 4D is a graph showing Ezh2 expression in c-Kit^+ or c-Kit− cells harvested from TUBO-derived tumors in BALB/c mice treated with miR-26a chimera (670 pmol/20 g) for 3 days. Data (mean+s.d.) were pooled from two experiments, involving a total of 6 mice per group. FIG. 4E is a graph showing Bak1 expression in c-Kit^+ or c-Kit-cells harvested from TUBO-derived tumors in BALB/c mice treated with miR-26a chimera (670 pmol/20 g) for 3 days. Data (mean+s.d.) were pooled from two experiments, involving a total of 6 mice per group. FIG. 4F is a graph showing miR-26a expression in bone marrow (BM) detected by qPCR at 3 days after intravenous injection with the miR-26a chimera (670 pmol/20 g). Data (mean+s.d.) were pooled from two experiments, involving a total of 6 mice per group. FIG. 4G is a graph showing Bak expression in bone marrow (BM) detected by qPCR at 3 days after intravenous injection with the miR-26a chimera (670 pmol/20 g). Data (mean+s.d.) were pooled from two experiments, involving a total of 6 mice per group. FIG. 4H is a graph showing tumor volume over time. BALB/c mice bearing TUBO cells were treated with miR-26a chimera (670 pmol/20 g) (5 times, gray arrows) and 50 mg/kg 5-FU (3 times, dark grey arrows). Data (mean+s.d.) were pooled from two experiments, involving a total of 6 mice per group. There was significant difference between 5-FU only group versus miR-26a chimera only group (two way repeated-measures ANOVA followed by Bonferroni post-test for day0 to day18 (interaction p-value<0.001). FIG. 4I is a graph showing tumor volume over time after combinational treatment with 5-FU and chimeras. Data (mean+s.d.) were pooled from two experiments, involving a total of 6 mice per group. There was significant difference between 5-FU+ctrl chimera group versus 5-FU+miR-26a chimera group (two way repeated-measures ANOVA followed by Bonferroni post-test for day0 to day21, interaction p-value<0.0001). FIG. 4J is a graph showing the numbers of WBC and PLT in the tumor bearing mice 5 days after 5-FU treatment. Data (mean+s.d.) pooled from two experiments, involving a total of 6 mice per group. *P<0.05, **P<0.01.
A mouse TUBO breast cancer model was used to evaluate the therapeutic potential of miR-26a chimera for the myeloprotection and anti-tumor growth in breast cancer chemotherapy. Binding ability of an aptamer targeting mouse c-Kit to the TUBO cells was first tested by flow cytometry. […] To determine whether the mouse c-Kit-miR-26a chimera can inhibit the growth of mouse breast cancer cells in vitro, the TUBO cells were treated with increasing doses of miR-26a- or control-chimeras, and the viable cells counted under microscope at 2 days after the treatment.

TUBO-derived tumors [2] = assay: Syngeneic TUBO breast tumor model in BALB/c mice; assay type: in vivo, mouse

Molecule | leukocytes and thrombocytes after 5-FU (TUBO-derived tumors [1]; TUBO-tumor bearing mice, 5-FU 50 mg/kg x3) | tumor size / growth, monotherapy (TUBO-derived tumors [1]) | reduction in tumor cell number (TUBO cells; TUBO cells, 7 μM of 5-FU alone) | percentage of apoptotic TUBO cells (Annexin V+) (TUBO cells) | Bak expression among c-Kit+ tumor cells (TUBO-derived tumors [2]; 670 pmol/20 g, 3 days) | Ezh2 expression among c-Kit+ tumor cells (TUBO-derived tumors [2]; 670 pmol/20 g, 3 days) | miR-26a among c-Kit+ tumor cells (TUBO-derived tumors [2]; 3 days after injection, qPCR) | miR-26a levels in c-Kit+ BM cells (TUBO-derived tumors [2]; day 3 after single treatment, qPCR) | Bak1 expression in c-Kit+ HSPC (TUBO-derived tumors [2]; mice that received no 5-FU-treatment) | tumor growth, 5-FU combined with chimera (TUBO-derived tumors [1]; 5-FU plus miR-26a chimera) | number of leukocytes (WBC) and thrombocytes (PLT), combination with 5-FU (TUBO-derived tumors [1]; TUBO-tumor bearing mice, 5 days after 5-FU) | 5-FU-induced leukopenia / myelosuppression in tumor-bearing mice (TUBO-derived tumors [1]; chimera daily for 5 days, 5-FU at days 2, 3, 4) | tumor cell number / effects, chimera in combination with 5-FU (TUBO cells; TUBO cells, 5-FU 1 μg/ml (7 μM) plus chimera) | IC50 (TUBO cells; TUBO cells, viable cells counted 2 days after treatment, chimera alone, read-out: IC50, reduction in tumor cell number) | TUBO cell growth (cell count) (TUBO cells; chimera alone, increasing doses) | percentage of apoptotic TUBO cells, chimera in combination with 5-FU (TUBO cells; combination)
O=c1[nH]cc(F)c(=O)[nH]1 [5-FU, 5-fluorouracil, reference compound] | significant leukopenia and thrombocytopenia | growth retardation | less than 20% | increased | – | – | – | – | – | – | – | – | – | – | – | –
B1 | – | significant decrease of tumor size; also recorded: more effective than 5-FU treatment | – | induced apoptosis; also recorded: increased | not significantly elevated | specific decrease | significant increase | selective increase | not significantly down-regulated | most effective growth retardation | nearly doubled | ameliorates 5-FU induced myelosuppression; also recorded: largely prevented leukopenia | enhanced these effects; also recorded: synergistically reduced tumor cells | ~0.083 µM | suppressed the growth; also recorded: dose-dependent reduction | increased
